Data from article PMC9482650, “Quantitative fragmentomics allow affinity mapping of interactomes” (Nature Communications, 2022).

Assays:
Assay in all cases: holdup assay
Set-up in all cases: key: below the threshold = too weak to quantify, mostly under pKd 3.1 to 4
HTRA3, P83110 = biological target: T1, HTRA3, P83110
T1 sequence (P83110 354-453, limits assumed, looked up): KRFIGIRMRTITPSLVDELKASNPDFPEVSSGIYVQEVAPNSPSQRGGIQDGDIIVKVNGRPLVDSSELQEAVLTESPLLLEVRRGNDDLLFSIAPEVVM

Inadl_1, Q8NI35 = biological target: Inadl_1, Q8NI35
MAGI2_3, Q86UL8 = biological target: MAGI2_3, Q86UL8
DLG4_3, P78352 = biological target: DLG4_3, P78352
SNTG1, Q9NSN8 = biological target: T2, SNTG1, Q9NSN8
T2 sequence (Q9NSN8 52-150, limits assumed, looked up): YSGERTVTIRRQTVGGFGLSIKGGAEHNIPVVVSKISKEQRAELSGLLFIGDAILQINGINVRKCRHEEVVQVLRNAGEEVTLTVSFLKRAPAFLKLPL

TX1BP3, O14907 = biological target: T3, TX1BP3, O14907
T3 sequence (O14907 10-122, limits assumed, looked up): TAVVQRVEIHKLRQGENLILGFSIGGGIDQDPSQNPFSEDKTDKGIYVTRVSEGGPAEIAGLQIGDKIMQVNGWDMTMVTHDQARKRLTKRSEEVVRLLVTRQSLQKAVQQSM

FRMPD2_2, Q68DX3 = biological target: FRMPD2_2, Q68DX3
FRMPD2_1, Q68DX3 = biological target: FRMPD2_1, Q68DX3
DLG3_1, Q92796 = biological target: T4, DLG3_1, Q92796
T4 sequence (Q92796 125-227, limits assumed, looked up): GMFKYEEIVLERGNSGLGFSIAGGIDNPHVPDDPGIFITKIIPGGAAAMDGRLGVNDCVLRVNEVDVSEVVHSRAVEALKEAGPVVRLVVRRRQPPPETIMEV

PDLIM1, O00151 = biological target: PDLIM1, O00151
NHERF4_2, Q86UT5 = biological target: NHERF4_2, Q86UT5
TJP1_3, Q07157 = biological target: TJP1_3, Q07157
GOPC, Q9HD26 = biological target: GOPC, Q9HD26
HTRA2, O43464 = biological target: HTRA2, O43464
TJP2_1, Q9UDY2 = biological target: TJP2_1, Q9UDY2
LAP2, Q96RT1 = biological target: LAP2, Q96RT1
GRIP2_4, Q9C0E4 = biological target: GRIP2_4, Q9C0E4
RAPGEF6, Q8TEU7 = biological target: T5, RAPGEF6, Q8TEU7
T5 sequence (Q8TEU7 525-625, limits assumed, looked up): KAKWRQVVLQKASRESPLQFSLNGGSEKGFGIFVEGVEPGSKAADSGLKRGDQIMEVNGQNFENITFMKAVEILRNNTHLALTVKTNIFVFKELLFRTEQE

IL16_4, Q14005 = biological target: IL16_4, Q14005
Inadl_6, Q8NI35 = biological target: Inadl_6, Q8NI35
PCLO, Q9Y6V0 = biological target: T6, PCLO, Q9Y6V0
T6 sequence (Q9Y6V0 4491-4600, limits assumed, looked up): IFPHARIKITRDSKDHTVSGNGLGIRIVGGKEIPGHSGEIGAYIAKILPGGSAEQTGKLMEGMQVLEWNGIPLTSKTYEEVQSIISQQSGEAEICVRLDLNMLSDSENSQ

DLG4_2, P78352 = biological target: DLG4_2, P78352
PDZD2_2, O15018 = biological target: T7, PDZD2_2, O15018
T7 sequence (O15018 329-429, limits assumed, looked up): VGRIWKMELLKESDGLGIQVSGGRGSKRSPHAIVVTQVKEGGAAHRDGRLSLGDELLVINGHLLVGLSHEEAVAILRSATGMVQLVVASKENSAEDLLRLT

LNX1_1, Q8TBB1 = biological target: LNX1_1, Q8TBB1
SCRIB_3, Q14160 = biological target: SCRIB_3, Q14160
TIAM2, Q8IVF5 = biological target: T8, TIAM2, Q8IVF5
T8 sequence (Q8IVF5 885-986, limits assumed, looked up): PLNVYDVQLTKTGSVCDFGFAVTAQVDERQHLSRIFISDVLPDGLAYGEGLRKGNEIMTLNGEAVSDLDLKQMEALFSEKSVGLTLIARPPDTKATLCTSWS

Inadl_9, Q8NI35 = biological target: Inadl_9, Q8NI35
LIN7B, Q9HAP6 = biological target: T9, LIN7B, Q9HAP6
T9 sequence (Q9HAP6 88-185, limits assumed, looked up): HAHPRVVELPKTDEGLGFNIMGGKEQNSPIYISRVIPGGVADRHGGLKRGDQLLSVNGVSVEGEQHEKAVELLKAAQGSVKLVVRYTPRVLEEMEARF

[1] = plain residues with an end cap or a label only (N-terminal biotin on a linker: ahx)
[2] = plain residues with an end cap or a label only (N-terminal biotin on a linker: ado-ado)

LNX1_1, Q8TBB1, sequence (Q8TBB1 261-371): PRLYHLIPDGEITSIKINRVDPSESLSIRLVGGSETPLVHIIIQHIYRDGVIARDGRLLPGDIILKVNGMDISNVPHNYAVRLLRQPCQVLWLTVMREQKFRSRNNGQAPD
SCRIB_3, Q14160, sequence (Q14160 999-1103): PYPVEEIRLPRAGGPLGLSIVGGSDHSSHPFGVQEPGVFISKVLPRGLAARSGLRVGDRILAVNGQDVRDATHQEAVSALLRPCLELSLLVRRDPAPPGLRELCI
LAP2, Q96RT1, sequence (Q96RT1 other isoform, or with tags, fused parts or gaps): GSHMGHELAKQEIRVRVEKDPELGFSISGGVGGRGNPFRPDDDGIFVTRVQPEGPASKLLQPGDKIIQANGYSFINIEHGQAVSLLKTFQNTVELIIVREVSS
GRIP2_4, Q9C0E4, sequence (Q9C0E4 446-548): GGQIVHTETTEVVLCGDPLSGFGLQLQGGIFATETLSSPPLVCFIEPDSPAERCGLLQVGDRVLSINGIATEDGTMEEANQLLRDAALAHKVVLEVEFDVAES
NHERF4_2, Q86UT5, sequence (Q86UT5 220-308): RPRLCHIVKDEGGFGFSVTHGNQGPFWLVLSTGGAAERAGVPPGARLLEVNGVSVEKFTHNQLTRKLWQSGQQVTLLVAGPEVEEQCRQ
DLG4_2, P78352, sequence (P78352 155-259): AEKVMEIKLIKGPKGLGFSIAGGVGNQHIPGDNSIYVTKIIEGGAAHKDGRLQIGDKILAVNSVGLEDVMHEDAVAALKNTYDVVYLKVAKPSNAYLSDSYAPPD
TJP2_1, Q9UDY2, sequence (Q9UDY2 24-128): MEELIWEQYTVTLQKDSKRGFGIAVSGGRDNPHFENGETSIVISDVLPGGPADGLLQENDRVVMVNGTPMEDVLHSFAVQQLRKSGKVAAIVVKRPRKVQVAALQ
Inadl_9, Q8NI35, sequence (Q8NI35 1530-1615): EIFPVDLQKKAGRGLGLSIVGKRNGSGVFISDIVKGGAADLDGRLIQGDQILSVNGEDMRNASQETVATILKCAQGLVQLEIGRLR
IL16_4, Q14005, sequence (Q14005 1229-1329): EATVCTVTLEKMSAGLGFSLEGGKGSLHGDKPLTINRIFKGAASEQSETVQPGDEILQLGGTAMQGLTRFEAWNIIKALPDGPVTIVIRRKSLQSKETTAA
Inadl_1, Q8NI35, sequence (Q8NI35 113-229): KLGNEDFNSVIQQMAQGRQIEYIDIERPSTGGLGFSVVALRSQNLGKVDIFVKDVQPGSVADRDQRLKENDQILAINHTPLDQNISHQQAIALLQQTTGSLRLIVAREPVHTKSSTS
FRMPD2_2, Q68DX3, sequence (Q68DX3 944-1038): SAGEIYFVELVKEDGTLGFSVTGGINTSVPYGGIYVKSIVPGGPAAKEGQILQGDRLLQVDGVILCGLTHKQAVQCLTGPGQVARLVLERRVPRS
PDLIM1, O00151, sequence (O00151 1-87): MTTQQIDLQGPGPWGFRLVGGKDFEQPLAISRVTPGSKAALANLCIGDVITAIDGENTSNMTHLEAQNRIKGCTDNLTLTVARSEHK
HTRA2, O43464, sequence (O43464 355-458): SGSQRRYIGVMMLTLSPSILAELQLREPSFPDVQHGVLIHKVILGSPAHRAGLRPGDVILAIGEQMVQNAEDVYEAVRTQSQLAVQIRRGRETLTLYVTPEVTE
DLG4_3, P78352, sequence (P78352 306-403): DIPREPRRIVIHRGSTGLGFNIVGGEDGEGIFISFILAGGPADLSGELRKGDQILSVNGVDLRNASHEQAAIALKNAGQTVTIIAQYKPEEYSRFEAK
MAGI2_3, Q86UL8, sequence (Q86UL8 600-682): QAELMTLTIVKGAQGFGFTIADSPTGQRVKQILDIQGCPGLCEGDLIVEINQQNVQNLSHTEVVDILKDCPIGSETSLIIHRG
FRMPD2_1, Q68DX3, sequence (Q68DX3 770-861): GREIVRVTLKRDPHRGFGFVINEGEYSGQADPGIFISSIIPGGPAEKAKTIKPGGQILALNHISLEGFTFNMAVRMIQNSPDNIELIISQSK
TJP1_3, Q07157, sequence (Q07157 416-512): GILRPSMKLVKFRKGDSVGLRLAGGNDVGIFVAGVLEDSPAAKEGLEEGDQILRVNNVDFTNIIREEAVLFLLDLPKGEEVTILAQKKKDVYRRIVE
Inadl_6, Q8NI35, sequence (Q8NI35 1058-1167): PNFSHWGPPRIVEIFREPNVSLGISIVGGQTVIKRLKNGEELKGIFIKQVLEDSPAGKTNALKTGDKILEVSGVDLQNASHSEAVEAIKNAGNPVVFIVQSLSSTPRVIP

## QNTDDVQTSF [ACE2, Q9BYF1]
HTRA3, P83110; [1]
  pKd: below the threshold
Inadl_1, Q8NI35; [1]
  pKd: below the threshold
MAGI2_3, Q86UL8; [1]
  pKd: below the threshold
DLG4_3, P78352; [1]
  pKd: below the threshold
SNTG1, Q9NSN8; [1]
  pKd: below the threshold
TX1BP3, O14907; [1]
  pKd: below the threshold
FRMPD2_2, Q68DX3; [1]
  pKd: below the threshold
FRMPD2_1, Q68DX3; [1]
  pKd: below the threshold
DLG3_1, Q92796; [1]
  pKd: below the threshold
PDLIM1, O00151; [1]
  pKd: below the threshold
NHERF4_2, Q86UT5; [1]
  pKd: below the threshold
TJP1_3, Q07157; [1]
  pKd: below the threshold
GOPC, Q9HD26; [1]
  pKd: below the threshold
HTRA2, O43464; [1]
  pKd: below the threshold
TJP2_1, Q9UDY2; [1]
  pKd: below the threshold
LAP2, Q96RT1; [1]
  pKd: below the threshold
GRIP2_4, Q9C0E4; [1]
  pKd: below the threshold
RAPGEF6, Q8TEU7; [1]
  pKd: below the threshold
IL16_4, Q14005; [1]
  pKd: below the threshold
Inadl_6, Q8NI35; [1]
  pKd: below the threshold
PCLO, Q9Y6V0; [1]
  pKd: below the threshold
DLG4_2, P78352; [1]
  pKd: below the threshold
PDZD2_2, O15018; [1]
  pKd: below the threshold
LNX1_1, Q8TBB1; [1]
  pKd: below the threshold
SCRIB_3, Q14160; [1]
  pKd: below the threshold
TIAM2, Q8IVF5; [1]
  pKd: below the threshold
Inadl_9, Q8NI35; [1]
  pKd: below the threshold
LIN7B, Q9HAP6; [1]
  pKd: below the threshold

## PYSESDDDWC [CACNA1A, O00555]
HTRA3, P83110; [2]
  pKd: 5.79
Inadl_1, Q8NI35; [2]
  pKd: below the threshold
MAGI2_3, Q86UL8; [2]
  pKd: below the threshold
DLG4_3, P78352; [2]
  pKd: below the threshold
SNTG1, Q9NSN8; [2]
  pKd: 3.66
TX1BP3, O14907; [2]
  pKd: below the threshold
FRMPD2_2, Q68DX3; [2]
  pKd: below the threshold
FRMPD2_1, Q68DX3; [2]
  pKd: below the threshold
DLG3_1, Q92796; [2]
  pKd: below the threshold
PDLIM1, O00151; [2]
  pKd: 3.68
NHERF4_2, Q86UT5; [2]
  pKd: below the threshold
TJP1_3, Q07157; [2]
  pKd: below the threshold
GOPC, Q9HD26; [2]
  pKd: below the threshold
HTRA2, O43464; [2]
  pKd: below the threshold
TJP2_1, Q9UDY2; [2]
  pKd: 3.64
LAP2, Q96RT1; [2]
  pKd: 3.87
GRIP2_4, Q9C0E4; [2]
  pKd: below the threshold
RAPGEF6, Q8TEU7; [2]
  pKd: below the threshold
IL16_4, Q14005; [2]
  pKd: below the threshold
Inadl_6, Q8NI35; [2]
  pKd: below the threshold
PCLO, Q9Y6V0; [2]
  pKd: below the threshold
DLG4_2, P78352; [2]
  pKd: below the threshold
PDZD2_2, O15018; [2]
  pKd: 5.3
LNX1_1, Q8TBB1; [2]
  pKd: below the threshold
SCRIB_3, Q14160; [2]
  pKd: 3.83
TIAM2, Q8IVF5; [2]
  pKd: 4.06
Inadl_9, Q8NI35; [2]
  pKd: below the threshold
LIN7B, Q9HAP6; [2]
  pKd: 3.9

## QSGLYESEEL [MYOT, Q9UBF9]
HTRA3, P83110; [2]
  pKd: below the threshold
Inadl_1, Q8NI35; [2]
  pKd: below the threshold
MAGI2_3, Q86UL8; [2]
  pKd: below the threshold
DLG4_3, P78352; [2]
  pKd: below the threshold
SNTG1, Q9NSN8; [2]
  pKd: below the threshold
TX1BP3, O14907; [2]
  pKd: 3.85
FRMPD2_2, Q68DX3; [2]
  pKd: below the threshold
FRMPD2_1, Q68DX3; [2]
  pKd: below the threshold
DLG3_1, Q92796; [2]
  pKd: below the threshold
PDLIM1, O00151; [2]
  pKd: 5.09
NHERF4_2, Q86UT5; [2]
  pKd: below the threshold
TJP1_3, Q07157; [2]
  pKd: below the threshold
GOPC, Q9HD26; [2]
  pKd: below the threshold
HTRA2, O43464; [2]
  pKd: below the threshold
TJP2_1, Q9UDY2; [2]
  pKd: below the threshold
LAP2, Q96RT1; [2]
  pKd: 3.9
GRIP2_4, Q9C0E4; [2]
  pKd: below the threshold
RAPGEF6, Q8TEU7; [2]
  pKd: 3.57
IL16_4, Q14005; [2]
  pKd: below the threshold
Inadl_6, Q8NI35; [2]
  pKd: below the threshold
PCLO, Q9Y6V0; [2]
  pKd: below the threshold
DLG4_2, P78352; [2]
  pKd: 3.53
PDZD2_2, O15018; [2]
  pKd: below the threshold
LNX1_1, Q8TBB1; [2]
  pKd: below the threshold
SCRIB_3, Q14160; [2]
  pKd: below the threshold
TIAM2, Q8IVF5; [2]
  pKd: 4.19
Inadl_9, Q8NI35; [2]
  pKd: below the threshold
LIN7B, Q9HAP6; [2]
  pKd: 3.66

## KKMLQRRTLL [OR8G1, Q15617]
HTRA3, P83110; [2]
  pKd: below the threshold
Inadl_1, Q8NI35; [2]
  pKd: below the threshold
MAGI2_3, Q86UL8; [2]
  pKd: below the threshold
DLG4_3, P78352; [2]
  pKd: below the threshold
SNTG1, Q9NSN8; [2]
  pKd: below the threshold
TX1BP3, O14907; [2]
  pKd: 3.76
FRMPD2_2, Q68DX3; [2]
  pKd: below the threshold
FRMPD2_1, Q68DX3; [2]
  pKd: below the threshold
DLG3_1, Q92796; [2]
  pKd: below the threshold
PDLIM1, O00151; [2]
  pKd: below the threshold
NHERF4_2, Q86UT5; [2]
  pKd: below the threshold
TJP1_3, Q07157; [2]
  pKd: below the threshold
GOPC, Q9HD26; [2]
  pKd: 3.89
HTRA2, O43464; [2]
  pKd: below the threshold
TJP2_1, Q9UDY2; [2]
  pKd: 4.32
LAP2, Q96RT1; [2]
  pKd: below the threshold
GRIP2_4, Q9C0E4; [2]
  pKd: below the threshold
RAPGEF6, Q8TEU7; [2]
  pKd: below the threshold
IL16_4, Q14005; [2]
  pKd: below the threshold
Inadl_6, Q8NI35; [2]
  pKd: below the threshold
PCLO, Q9Y6V0; [2]
  pKd: below the threshold
DLG4_2, P78352; [2]
  pKd: 3.81
PDZD2_2, O15018; [2]
  pKd: below the threshold
LNX1_1, Q8TBB1; [2]
  pKd: below the threshold
SCRIB_3, Q14160; [2]
  pKd: 4.07
TIAM2, Q8IVF5; [2]
  pKd: below the threshold
Inadl_9, Q8NI35; [2]
  pKd: below the threshold
LIN7B, Q9HAP6; [2]
  pKd: below the threshold
